# Source: publication PMC3315512
# B1: BAG-1 (C. elegans, unlabelled), O44739 1-210 (natural protein)
# chain: MKVNVSCSSVQTTIDILEENQGEDESILTLGQLRDRIATDNDVDVETMKLLHRGKFLQGADDVSLSTLNFKENDKIIVMGGKNALVDDAGFKMLMQYEKHNLSNLQKAYDLNLRDVADLERGFLEKPKQVEMGKKLEKKVKYFNEEAERHLETLDGMNIITETTPENQAKRNREKRKTLVNGIQTLLNQNDALLRRLQEYQSVLNGDIPE
# Target: CeHsc70-Δ512 (lidless CeHsc70) (C. elegans), P09446
# Sequence (P09446 1-512, stated change not applied): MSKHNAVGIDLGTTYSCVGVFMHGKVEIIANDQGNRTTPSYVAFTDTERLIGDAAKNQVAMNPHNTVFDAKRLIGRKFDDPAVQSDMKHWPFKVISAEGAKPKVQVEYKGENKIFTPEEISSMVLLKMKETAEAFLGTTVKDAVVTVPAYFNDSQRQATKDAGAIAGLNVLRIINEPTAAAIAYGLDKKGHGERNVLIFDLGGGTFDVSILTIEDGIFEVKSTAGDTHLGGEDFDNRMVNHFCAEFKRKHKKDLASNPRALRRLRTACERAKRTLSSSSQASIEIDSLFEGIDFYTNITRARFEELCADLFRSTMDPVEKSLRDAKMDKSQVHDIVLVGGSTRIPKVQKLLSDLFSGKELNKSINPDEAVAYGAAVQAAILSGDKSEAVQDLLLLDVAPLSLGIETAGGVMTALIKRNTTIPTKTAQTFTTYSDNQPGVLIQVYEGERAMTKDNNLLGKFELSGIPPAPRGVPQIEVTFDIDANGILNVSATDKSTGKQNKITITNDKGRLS
binder,measurement,value
B1,"apparent KD of BAG-1 from titration of the steady-state ATPase activity, standard buffer, 25°C",6.5 µM
